According to US20190015483A1 (CSL BEHRING RECOMBINANT FACILITY, published 2019):
Changes are numbered by the printed parent chain. Names and notes keep the numbering of the source.

T1: recombinant Factor VIII (CSL627, rVIII-SingleChain) (Homo sapiens (Human), UniProt P00451 20-2351)
T1 construct: also called FVIII
T1 sequence: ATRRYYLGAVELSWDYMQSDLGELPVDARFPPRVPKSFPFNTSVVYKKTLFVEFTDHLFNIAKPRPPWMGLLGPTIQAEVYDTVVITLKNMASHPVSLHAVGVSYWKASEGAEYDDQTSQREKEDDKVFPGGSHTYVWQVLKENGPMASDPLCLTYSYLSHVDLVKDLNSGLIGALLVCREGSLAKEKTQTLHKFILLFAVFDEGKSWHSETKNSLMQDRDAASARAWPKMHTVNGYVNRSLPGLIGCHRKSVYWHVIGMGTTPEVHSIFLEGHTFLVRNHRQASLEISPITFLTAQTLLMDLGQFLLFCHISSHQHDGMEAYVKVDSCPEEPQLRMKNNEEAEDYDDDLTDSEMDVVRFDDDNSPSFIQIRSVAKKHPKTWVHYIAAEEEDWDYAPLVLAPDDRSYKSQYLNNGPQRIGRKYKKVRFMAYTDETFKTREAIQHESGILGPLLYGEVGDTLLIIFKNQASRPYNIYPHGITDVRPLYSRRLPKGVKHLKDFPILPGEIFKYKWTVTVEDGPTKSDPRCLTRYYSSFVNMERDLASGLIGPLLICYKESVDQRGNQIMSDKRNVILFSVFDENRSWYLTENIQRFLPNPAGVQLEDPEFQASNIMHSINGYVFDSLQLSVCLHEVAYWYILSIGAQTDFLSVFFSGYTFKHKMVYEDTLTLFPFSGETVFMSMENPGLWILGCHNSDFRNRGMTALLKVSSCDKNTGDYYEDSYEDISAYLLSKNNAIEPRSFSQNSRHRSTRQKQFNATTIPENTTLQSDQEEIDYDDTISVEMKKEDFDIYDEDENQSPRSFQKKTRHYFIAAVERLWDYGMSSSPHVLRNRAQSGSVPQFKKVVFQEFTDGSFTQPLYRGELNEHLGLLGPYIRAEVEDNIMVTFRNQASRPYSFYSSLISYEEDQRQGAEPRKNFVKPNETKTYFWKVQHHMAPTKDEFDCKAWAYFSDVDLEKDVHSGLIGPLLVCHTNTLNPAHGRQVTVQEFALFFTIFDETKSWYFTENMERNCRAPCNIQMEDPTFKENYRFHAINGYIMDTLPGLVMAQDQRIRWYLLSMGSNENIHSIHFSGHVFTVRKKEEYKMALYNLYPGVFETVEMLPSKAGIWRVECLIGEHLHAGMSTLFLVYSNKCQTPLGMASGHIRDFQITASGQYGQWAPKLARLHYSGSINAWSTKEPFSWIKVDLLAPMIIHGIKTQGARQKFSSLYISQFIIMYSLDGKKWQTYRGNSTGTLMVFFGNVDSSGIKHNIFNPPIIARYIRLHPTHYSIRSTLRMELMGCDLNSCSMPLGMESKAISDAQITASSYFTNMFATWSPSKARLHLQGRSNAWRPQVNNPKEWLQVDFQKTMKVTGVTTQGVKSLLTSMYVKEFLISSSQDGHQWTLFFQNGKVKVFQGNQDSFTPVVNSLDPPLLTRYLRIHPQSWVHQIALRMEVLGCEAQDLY

T2: recombinant Factor VIII (CSL627, rVIII-SingleChain) (Homo sapiens (Human), UniProt P00451 20-2351)
T2 construct: also called FVIII
T2 sequence: T1 sequence

B1: Hu-vWF[764-1270]-8His S764P-K773A (other)
chain: PLSCRPPMVALVCPADNLRAEGLECTKTCQNYDLECMSMGCVSGCLCPPGMVRHENRCVALERCPCFHQGKEYAPGETVKIGCNTCVCRDRKWNCTDHVCDATCSTIGMAHYLTFDGLKYLFPGECQYVLVQDYCGSNPGTFRILVGNKGCSHPSVKCKKRVTILVEGGEIELFDGEVNVKRPMKDETHFEVVESGRYIILLLGKALSVVWDRHLSISVVLKQTYQEKVCGLCGNFDGIQNNDLTSSNLQVEEDPVDFGNSWKVSSQCADTRKVPLDSSPATCHNNIMKQTMVDSSCRILTSDVFQDCNKLVDPEPYLDVCIYDTCSCESIGDCACFCDTIAAYAHVCAQHGKVVTWRTATLCPQSCEERNLRENGYECEWRYNSCAPACQVTCQHPEPLACPVQCVEGCHAHCPPGKILDELLQTCVDPEDCPVCEVAGRRFASGKKVTLNPSDPEHCQICHCDVVNLTCEACQEPGGLVVPPTDAPVSPTTLYVEDISEPPLHDFHHHHHHHH
B2: Hu-vWF[764-1270]-8His S764P-K773D (other)
chain: B1 chain with A10D
B3: Hu-vWF[764-1270]-8His S764P-K773E (other)
chain: B1 chain with A10E
B4: Hu-vWF[764-1270]-8His S764P-K773F (other)
chain: B1 chain with A10F
B5: Hu-vWF[764-1270]-8His S764P-K773G (other)
chain: B1 chain with A10G
B6: Hu-vWF[764-1270]-8His S764P-K773H (other)
chain: B1 chain with A10H
B7: Hu-vWF[764-1270]-8His S764P-K773I (other)
chain: B1 chain with A10I
B8: Hu-vWF[764-1270]-8His S764P-K773L (other)
chain: B1 chain with A10L
B9: Hu-vWF[764-1270]-8His S764P-K773M (other)
chain: B1 chain with A10M
B10: Hu-vWF[764-1270]-8His S766Y-P769T (other)
chain: B1 chain with P1S, S3Y, P6T, A10K
B11: Hu-vWF[764-1270]-8His S766Y-P769V (other)
chain: B1 chain with P1S, S3Y, P6V, A10K
B12: Hu-vWF[764-1270]-8His S766Y-P769W (other)
chain: B1 chain with P1S, S3Y, P6W, A10K
B13: Hu-vWF[764-1270]-8His S766Y-P769Y (other)
chain: B1 chain with P1S, S3Y, P6Y, A10K
B14: Hu-vWF[764-1270]-8His S766Y-R768A (other)
chain: B1 chain with P1S, S3Y, R5A, A10K
B15: Hu-vWF[764-1270]-8His S766Y-R768D (other)
chain: B1 chain with P1S, S3Y, R5D, A10K
B16: Hu-vWF[764-1270]-8His S766Y-R768E (other)
chain: B1 chain with P1S, S3Y, R5E, A10K
B17: Hu-vWF[764-1270]-8His S766Y-R768F (other)
chain: B1 chain with P1S, S3Y, R5F, A10K
B18: Hu-vWF[764-1270]-8His S766Y-R768G (other)
chain: B1 chain with P1S, S3Y, R5G, A10K
B19: Hu-vWF[764-1270]-8His S766Y-R768H (other)
chain: B1 chain with P1S, S3Y, R5H, A10K
B20: Hu-vWF[764-1270]-8His S766Y-R768I (other)
chain: B1 chain with P1S, S3Y, R5I, A10K
B21: Hu-vWF[764-1270]-8His S766Y-R768K (other)
chain: B1 chain with P1S, S3Y, R5K, A10K
B22: Hu-vWF[764-1270]-8His S766Y-R768L (other)
chain: B1 chain with P1S, S3Y, R5L, A10K
B23: Hu-vWF[764-1270]-8His S766Y-R768M (other)
chain: B1 chain with P1S, S3Y, R5M, A10K
B24: Hu-vWF[764-1270]-8His S766Y-R768N (other)
chain: B1 chain with P1S, S3Y, R5N, A10K
B25: Hu-vWF[764-1270]-8His S766Y-R768P (other)
chain: B1 chain with P1S, S3Y, R5P, A10K
B26: Hu-vWF[764-1270]-8His S766Y-R768Q (other)
chain: B1 chain with P1S, S3Y, R5Q, A10K
B27: Hu-vWF[764-1270]-8His S766Y-R768S (other)
chain: B1 chain with P1S, S3Y, R5S, A10K
B28: Hu-vWF[764-1270]-8His S766Y-R768T (other)
chain: B1 chain with P1S, S3Y, R5T, A10K
B29: Hu-vWF[764-1270]-8His S766Y-R768V (other)
chain: B1 chain with P1S, S3Y, R5V, A10K
B30: Hu-vWF[764-1270]-8His S766Y-R768W (other)
chain: B1 chain with P1S, S3Y, R5W, A10K
B31: Hu-vWF[764-1270]-8His S766Y-R768Y (other)
chain: B1 chain with P1S, S3Y, R5Y, A10K

How the values were obtained:
[1] = target: T1, recombinant Factor VIII (CSL627, …); experiment: SPR, anti-His capture
Method: Binding kinetics were investigated by surface plasmon resonance using a Biacore 4000 biosensor at 37° C. Each mutant was captured from cell culture medium to a density of 40-150 RU on a CM-5 sensor chip pre-immobilised with anti-His antibody (14,000 RU). In an initial screening study, FVIII was injected over the captured mutants for 5 minutes at 1 nM and dissociation monitored for 5 minutes.
All sensorgrams were double referenced by subtraction of signals from a reference spot (containing only immobilised anti His antibody) and from a blank injection. Binding kinetics were determined by fitting the double referenced sensorgrams to a 1:1 kinetic model.

[2] = target: T2, recombinant Factor VIII (CSL627, …); experiment: SPR, anti-His capture, FVIII injected, 37 C
Procedure, shortened: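 Kinetic constants come from 1:1 model fits of sensorgrams corrected against an anti-His-only spot and a buffer blank. In this screen, mutants from cell medium sat at 40-150 RU, and FVIII flowed over at 1 nM for 5 minutes, then dissociated for 5 minutes.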

| Kd [1] | koff [1] | kon [1] | Kd [2] | koff [2] | kon [2] | Binder |
| --- | --- | --- | --- | --- | --- | --- |
| 0.0297 nM | 0.000189 s⁻¹ | 6.37e+06 M⁻¹ s⁻¹ | – | – | – | B1 |
| 0.136 nM | 0.0024 s⁻¹ | 1.77e+07 M⁻¹ s⁻¹ | – | – | – | B2 |
| 0.0765 nM | 0.00515 s⁻¹ | 6.73e+07 M⁻¹ s⁻¹ | – | – | – | B3 |
| 0.121 nM | 0.00123 s⁻¹ | 1.02e+07 M⁻¹ s⁻¹ | – | – | – | B4 |
| 0.0436 nM | 0.000762 s⁻¹ | 1.75e+07 M⁻¹ s⁻¹ | – | – | – | B5 |
| 0.0386 nM | 0.000636 s⁻¹ | 1.65e+07 M⁻¹ s⁻¹ | – | – | – | B6 |
| 0.00943 nM | 0.000169 s⁻¹ | 1.79e+07 M⁻¹ s⁻¹ | – | – | – | B7 |
| 1.24 nM | 0.000572 s⁻¹ | 460000 M⁻¹ s⁻¹ | – | – | – | B8 |
| 0.0108 nM | 0.00017 s⁻¹ | 1.58e+07 M⁻¹ s⁻¹ | – | – | – | B9 |
| – | – | – | 0.0979 nM | 0.0005 s⁻¹ | 5.11e+06 M⁻¹ s⁻¹ | B10 |
| – | – | – | 0.0849 nM | 0.000565 s⁻¹ | 6.65e+06 M⁻¹ s⁻¹ | B11 |
| – | – | – | 0.0882 nM | 0.000421 s⁻¹ | 4.77e+06 M⁻¹ s⁻¹ | B12 |
| – | – | – | 0.0847 nM | 0.000396 s⁻¹ | 4.68e+06 M⁻¹ s⁻¹ | B13 |
| – | – | – | 0.212 nM | 0.00148 s⁻¹ | 6.99e+06 M⁻¹ s⁻¹ | B14 |
| – | – | – | 0.908 nM | 0.00448 s⁻¹ | 4.94e+06 M⁻¹ s⁻¹ | B15 |
| – | – | – | 0.569 nM | 0.00322 s⁻¹ | 5.65e+06 M⁻¹ s⁻¹ | B16 |

| Kd [1] | koff [1] | kon [1] | Kd [2] | koff [2] | kon [2] | Binder |
| --- | --- | --- | --- | --- | --- | --- |
| – | – | – | 0.279 nM | 0.00182 s⁻¹ | 6.51e+06 M⁻¹ s⁻¹ | B17 |
| – | – | – | 0.32 nM | 0.00102 s⁻¹ | 3.2e+06 M⁻¹ s⁻¹ | B18 |
| – | – | – | 0.172 nM | 0.00069 s⁻¹ | 4.02e+06 M⁻¹ s⁻¹ | B19 |
| – | – | – | 0.179 nM | 0.000899 s⁻¹ | 5.03e+06 M⁻¹ s⁻¹ | B20 |
| – | – | – | 0.109 nM | 0.000417 s⁻¹ | 3.83e+06 M⁻¹ s⁻¹ | B21 |
| – | – | – | 0.129 nM | 0.000548 s⁻¹ | 4.24e+06 M⁻¹ s⁻¹ | B22 |
| – | – | – | 0.196 nM | 0.000801 s⁻¹ | 4.08e+06 M⁻¹ s⁻¹ | B23 |
| – | – | – | 0.191 nM | 0.000798 s⁻¹ | 4.18e+06 M⁻¹ s⁻¹ | B24 |
| – | – | – | 0.213 nM | 0.00143 s⁻¹ | 6.71e+06 M⁻¹ s⁻¹ | B25 |
| – | – | – | 0.174 nM | 0.000606 s⁻¹ | 3.48e+06 M⁻¹ s⁻¹ | B26 |
| – | – | – | 0.243 nM | 0.00129 s⁻¹ | 5.33e+06 M⁻¹ s⁻¹ | B27 |
| – | – | – | 0.256 nM | 0.00143 s⁻¹ | 5.59e+06 M⁻¹ s⁻¹ | B28 |
| – | – | – | 0.203 nM | 0.000918 s⁻¹ | 4.51e+06 M⁻¹ s⁻¹ | B29 |
| – | – | – | 0.213 nM | 0.00094 s⁻¹ | 4.42e+06 M⁻¹ s⁻¹ | B30 |
| – | – | – | 0.277 nM | 0.00187 s⁻¹ | 6.74e+06 M⁻¹ s⁻¹ | B31 |
